Results on 5 molecules are retold here after patent US7595158B2, “Bcl2L12 polypeptide activators and inhibitors” (Dana-Farber Cancer Institute, Inc., priority 2003, dated 2009).

Experiment [1] deals with Ink4a-/-/Arf-/- astrocytes. Briefly: Growth of transduced Ink4a-/-/Arf-/- astrocytes under normal and low-serum conditions. Conditions: over-expression, 10% FBS, vs vector only. Format: cell-based, mouse. The source says: The Bcl2L12-V5, R-RAS, and IRF3 nucleic acid sequences were cloned into expression vectors. Controls included expression vectors containing EGFR or Bcl2 nucleic acid sequences. The encoded polypeptides were expressed in primary astrocytes and tested for cell growth, transformation, and apoptosis activities. Primary astrocytes deficient for Ink4a/Arf (e.g., Ink4a^−/−/Arf^−/− astrocytes) were used given the prominence of this tumor suppressor lesion in advanced human gliomas. The following was performed to assess growth characteristics under normal growth conditions. Mouse Ink4a^−/−/Arf^−/− astrocytes were retro-virally transduced with pBabe vector alone; Bcl2L12-V5 nucleic acid; R-RAS nucleic acid; IRF3 nucleic acid; EGFR* nucleic acid; or Bcl2 nucleic acid. After retro-viral infection, transduced mouse Ink4a^−/−/Arf^−/− astrocytes were subjected to puromycin (2 μg/mL) selection for four days and plated at a density of 1×10^5 cells/10 cm dish using 10% FBS-DMEM medium. All transduced Ink4a^−/−/Arf^−/− astrocytes were counted each day for five days to determine cell numbers (mean±S.D.; three independent experiments with each being performed in triplicate).
The following was performed to assess growth characteristics under low-serum growth conditions. Retro-virally transduced mouse Ink4a^−/−/Arf^−/− astrocytes (1×10^6 cells/10 cm dish) were allowed to attach onto plates in 10% FBS-DMEM medium for five hours. After five hours, the medium was changed to 0.1% FBS-DMEM, and the cells were allowed to grow for three days. After three days in 0.1% FBS, the cells were counted to determine cell numbers (mean±S.D.; three independent experiments with each being performed in triplicate). The number of Ink4a^−/−/Arf^−/− astrocytes infected with pBabe-vector was set to 1.0.

In experiment [2] the test system is Ink4a-/-/Arf-/- astrocytes. Put plainly: Annexin V staining of STS-treated Ink4a/Arf deficient astrocytes (FACS). The following applies: 100 nM staurosporine one day; control cultures about 17-22 percent. The format is cell-based, mouse. As to the method: The following experiments were performed to determine whether the Bcl2L12 polypeptide influenced cell survival or apoptosis. Ink4a^−/−/Arf^−/− astrocytes retro-virally infected with vector alone (pBabe) or vector containing Bcl2 nucleic acid, Bcl2L12-V5 nucleic acid, R-RAS nucleic acid, or IRF3 nucleic acid were […] After this one day incubation, the cells were stained with annexin V (Roche). Annexin V-positive cells were determined by FACScan analysis (mean±S.D.; three independent experiments with each being performed in triplicate).
After STS treatment, the cells were analyzed for apoptosis by assessing annexin V binding and DNA fragmentation using a FACS based analysis.

The subject of experiment [3] is Ink4a/Arf deficient embryonic fibroblasts. Briefly: Colony formation of Ink4a/Arf deficient embryonic fibroblasts. The following applies: about 300 cells per 6 well plate; vector only about 13. Format: cell-based. As to the method:
In addition, Ink4a/Arf deficient embryonic fibroblasts were transfected with vector only or a vector encoding a Bcl2L12 polypeptide or Bcl2 polypeptide. Once the cells were transfected, the number of colonies formed in cultures (about 300 cells per 6 well plate) was determined. Expression of Bcl2L12 polypeptide promoted growth of Ink4a/Arf deficient embryonic fibroblasts. […] In a similar experiment, Ink4a/Arf deficient embryonic fibroblasts were co-transfected with a vector encoding H-RasV12 and either a vector only, vector encoding Bcl2L12 polypeptide, or a vector encoding Bcl2 polypeptide. Once the cells were transfected, the number of foci formed per transfection was determined. Expression of Bcl2L12 polypeptide or Bcl2 polypeptide in combination with H-RasV12 expression promoted growth of Ink4a/Arf deficient embryonic fibroblasts (about 1.5 to 2 fold more foci per transfection for cells expressing Bcl2L12 polypeptide or Bcl2 polypeptide compared to control pBabe cells).

For the next experiment, the target named is T1, caspase-9 (Homo sapiens, UniProt P55211).
T1 construct: endogenous in cells; host or cells: 293T
T1 sequence (P55211 1-416): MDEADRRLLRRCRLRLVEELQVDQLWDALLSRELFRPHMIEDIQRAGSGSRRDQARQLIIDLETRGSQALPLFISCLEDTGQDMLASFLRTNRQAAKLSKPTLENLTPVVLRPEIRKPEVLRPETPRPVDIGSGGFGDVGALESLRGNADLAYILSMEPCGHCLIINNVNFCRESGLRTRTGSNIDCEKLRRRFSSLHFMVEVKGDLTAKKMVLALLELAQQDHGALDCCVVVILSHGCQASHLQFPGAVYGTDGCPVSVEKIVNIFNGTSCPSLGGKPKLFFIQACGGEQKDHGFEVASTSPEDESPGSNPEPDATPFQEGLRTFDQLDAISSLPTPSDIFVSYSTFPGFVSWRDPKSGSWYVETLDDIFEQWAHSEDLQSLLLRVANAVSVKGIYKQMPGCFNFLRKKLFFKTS
Put plainly: Caspase-9 in vitro cleavage and LEHDase activity assay with 293T cells. The format is cell-based. The following applies: V5 tagged constructs; vector only about 420 RFUs. The source says:
To determine if Bcl2L12 polypeptides could-regulate-the activity of caspase-9, a cell-free system was used in which exogenously added dATP and cytochrome c induced the activation of [^35S] labeled in vitro translated caspase-9. […] To confirm the inhibitory effect of Bcl2L12 polypeptides on caspase-9 maturation, 293T cells ectopically expressing Bcl2L12-V5 polypeptides where either subjected to an in vitro cleavage assay or to an activity assay using the caspase-9 specific fluorogenic peptide LEHD.
In addition, vectors encoding V5 tagged wild-type human Bcl2L12 polypeptide (WT; human amino acid sequence 1-334) and three V5 tagged truncation mutants of human Bcl2L12 (Bcl2L12-ΔBH2 polypeptide, human amino acid sequence 1-310; Bcl2L12-ΔBH2ΔP-r polypeptide, human amino acid sequence 1-267; and Bcl2L12-ΔBH2ΔP-rΔIHD polypeptide, human amino acid sequence 1-167) were made (FIG. 4A). These vectors expressed the appropriately sized polypeptides when translated in vitro or when expressed in 293T cells.

Experiment [4] concerns Ink4a-/-/Arf-/- mouse embryo fibroblasts. Briefly: Focus formation in cooperation with activated H-Ras in Ink4a-/-/Arf-/- mouse embryo fibroblasts. Conditions: cotransfected with H-Ras G12V, vs pBabe. The format is cell-based. As to the method:
The oncogenic potential of these genes was determined directly through their capacity to cooperate with activated H-RAS to effect the malignant transformation of primary Ink4a^−/−/Arf^−/− cells. Briefly, Ink4a^−/−/Arf^−/− mouse embryo fibroblasts (MEFs) were seeded at 8×10^5 cells/10 cm dish and grown in 10% FBS-DMEM for one day and then cotransfected with 1.5 μg of activated H-Ras^G12V and 1.5 μg of either pBabe, Bcl2, Bcl2L12-V5, R-RAS, or IRF3 nucleic acid using Lipopectamine-plus reagent (Invitrogen). One day after cotransfection, each Ink4a^−/−/ARF^−/− MEF was splitted 1:3 ratio and refed with 10% FBS-DMEM every 3-4 day for ten days. After staining cells with crystal violet solution, foci were counted to determine transformation efficiency (mean±S.D.; three independent experiments with each being done in duplicate). The numbers of foci from cells cotransfected with H-Ras^G12V and pBabe vector were set to 100%.
In addition, Ink4a/Arf deficient embryonic fibroblasts were transfected with vector only or a vector encoding a Bcl2L12 polypeptide or Bcl2 polypeptide. Once the cells were transfected, the number of colonies formed in cultures (about 300 cells per 6 well plate) was determined. Expression of Bcl2L12 polypeptide promoted growth of Ink4a/Arf deficient embryonic fibroblasts. […] Once the cells were transfected, the number of foci formed per transfection was determined. […]

“Bcl2: Bcl2 polypeptide expressed from control expression vector [reference compound]”: the “growth / proliferation under normal growth conditions” value (“growth / proliferation” for short) in experiment [1] was “failed to exhibit a pro-proliferative response”. The annexin-V positive cells in experiment [2] is given as 2-3%. Besides, the number of colonies result in experiment [3] was “about 10 colonies”.

B1: Bcl2L12-ΔBH2ΔP-rΔIHD: V5 tagged truncation mutant of human Bcl2L12, human amino acid sequence 1-167 (protein)
chain: MGRPAGLFPPLCPFLGFRPEACWERHMQIERAPSVPPFLRWAGYRPGPVRRRGKVELIKFVRVQWRRPQVEWRRRRWGPGPGASMAGSEELGLREDTLRVLAAFLRRGEAAGSPVPTPPRSPAQEEPTDFLSRLRRCLPCSLGRGAAPSESPRPCSLPIRPCYGLEP
modifications: left off: small tags and cut ends
With B1, in the experiment with caspase-9, the caspase-9 activity result is listed as “about 160 RFUs”.

B2: R-RAS: R-RAS polypeptide over-expressed from expression vector; candidate gene of the 19q13.3 amplicon (protein, UniProt P10301 1-215, looked up)
Ras-related protein R-Ras: MSSGAASGTGRGRPRGGGPGPGDPPPSETHKLVVVGGGGVGKSALTIQFIQSYFVSDYDPTIEDSYTKICSVDGIPARLDILDTAGQEEFGAMREQYMRAGHGFLLVFAINDRQSFNEVGKLFTQILRVKDRDDFPVVLVGNKADLESQRQVPRSEASAFGASHHVAYFEASAKLRLNVDEAFEQLVRAVRKYQEQELPPSPPSAPRKKGGGCPC
Consider B2, for which the “growth / proliferation” value in experiment [1] is “moderate increase in proliferation”. Besides, in experiment [2], the annexin-V positive cells is given as 10-20%. Further, the “RAS-induced focus formation increase” value in experiment [4] is “did not exhibit any cooperative activity”.

B3: IRF3: IRF3 polypeptide expressed from expression vector; candidate gene of the 19q13.3 amplicon (protein, UniProt Q14653 1-427, looked up)
Interferon regulatory factor 3: MGTPKPRILPWLVSQLDLGQLEGVAWVNKSRTRFRIPWKHGLRQDAQQEDFGIFQAWAEATGAYVPGRDKPDLPTWKRNFRSALNRKEGLRLAEDRSKDPHDPHKIYEFVNSGVGDFSQPDTSPDTNGGGSTSDTQEDILDELLGNMVLAPLPDPGPPSLAVAPEPCPQPLRSPSLDNPTPFPNLGPSENPLKRLLVPGEEWEFEVTAFYRGRQVFQQTISCPEGLRLVGSEVGDRTLPGWPVTLPDPGMSLTDRGVMSYVRHVLSCLGGGLALWRAGQWLWAQRLGHCHTYWAVSEELLPNSGHGPDGEVPKDKEGGVFDLGPFIVDLITFTEGSGRSPRYALWFCVGESWPQDQPWTKRLVMVKVVPTCLRALVEMARVGGASSLENTVDLHISNSHPLSLTSDQYKAYLQDLVEGMDFQGPGES
On to B3, for which the “growth / proliferation” value in experiment [1] is given as “failed to exhibit a pro-proliferative response”. The annexin-V positive cells in experiment [2] is listed as 14-16%. In addition, in experiment [4], the “RAS-induced focus formation increase” value was “did not exhibit any cooperative activity”.

B4: Bcl2L12-ΔBH2ΔP-r: V5 tagged truncation mutant of human Bcl2L12, human amino acid sequence 1-267 (protein)
chain: MGRPAGLFPPLCPFLGFRPEACWERHMQIERAPSVPPFLRWAGYRPGPVRRRGKVELIKFVRVQWRRPQVEWRRRRWGPGPGASMAGSEELGLREDTLRVLAAFLRRGEAAGSPVPTPPRSPAQEEPTDFLSRLRRCLPCSLGRGAAPSESPRPCSLPIRPCYGLEPGPATPDFYALVAQRLEQLVQEQLKSPPSPELQGPPSTEKEAILRRLVALLEEEAEVINQKLASDPALRSKLVRLSSDSFARLVELFCSRDDSSRPSRACP
modifications: left off: small tags and cut ends
As to B4, the caspase-9 activity result in the experiment with caspase-9 is “about 130 RFUs”.
